Laboratory results reported in EP4650366A1.

How the values were obtained:
[1] = biological target: Human GARP-TGFβ1 complex (human) (UniProt Q14392); experiment: SPR (Biacore T200), method of Example 4
[2] = biological target: Human GARP-TGFβ1 complex (human) (UniProt Q14392); experiment: SPR (Biacore T200), antibody on Protein A chip, antigen in flow

Sequence of Human GARP-TGFβ1 complex (human) (Q14392 other isoform, or with tags, fused parts or gaps limits assumed, chain 1 of 2): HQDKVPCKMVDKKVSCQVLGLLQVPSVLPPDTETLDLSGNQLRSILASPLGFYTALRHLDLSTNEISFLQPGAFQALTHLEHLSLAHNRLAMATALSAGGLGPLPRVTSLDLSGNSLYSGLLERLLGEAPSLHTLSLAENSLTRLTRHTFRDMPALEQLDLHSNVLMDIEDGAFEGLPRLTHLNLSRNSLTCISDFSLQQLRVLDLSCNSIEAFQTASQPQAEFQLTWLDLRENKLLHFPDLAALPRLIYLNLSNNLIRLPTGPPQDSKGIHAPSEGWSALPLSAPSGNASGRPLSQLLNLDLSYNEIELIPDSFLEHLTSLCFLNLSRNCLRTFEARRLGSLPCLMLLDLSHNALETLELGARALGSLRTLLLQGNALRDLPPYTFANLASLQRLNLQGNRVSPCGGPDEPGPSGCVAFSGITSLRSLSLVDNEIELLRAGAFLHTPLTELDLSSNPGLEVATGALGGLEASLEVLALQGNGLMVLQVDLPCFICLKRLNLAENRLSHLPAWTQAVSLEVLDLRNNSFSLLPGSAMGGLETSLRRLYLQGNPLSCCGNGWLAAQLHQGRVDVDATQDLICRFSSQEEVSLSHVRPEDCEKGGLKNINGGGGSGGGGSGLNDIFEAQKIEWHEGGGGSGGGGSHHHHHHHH
Sequence of Human GARP-TGFβ1 complex (human) (chain, as listed by the source limits assumed, chain 2 of 2): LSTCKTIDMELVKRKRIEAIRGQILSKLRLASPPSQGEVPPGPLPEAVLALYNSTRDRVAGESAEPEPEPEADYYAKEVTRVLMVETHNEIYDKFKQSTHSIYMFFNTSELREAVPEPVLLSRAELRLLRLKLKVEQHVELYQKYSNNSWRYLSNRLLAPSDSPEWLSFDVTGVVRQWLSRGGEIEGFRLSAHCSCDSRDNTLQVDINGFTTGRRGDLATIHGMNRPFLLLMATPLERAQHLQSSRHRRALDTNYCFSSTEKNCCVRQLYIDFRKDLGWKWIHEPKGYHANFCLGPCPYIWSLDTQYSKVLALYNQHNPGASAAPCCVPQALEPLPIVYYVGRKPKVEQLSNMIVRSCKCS

## Abbv-151 (antibody)
[1]
  Kd: 0.98 nM
  koff: 0.000151 s⁻¹
  kon: 154000 M⁻¹ s⁻¹
[2]
  Kd: 4.39 nM
  koff: 0.00283 s⁻¹
  kon: 645000 M⁻¹ s⁻¹
